In patent US12545899B2, “Luciferase enzymes for use with thermostable luciferins in bioluminescent assays” (Promega Corporation, priority 2018, dated 2026):
Positions count from the first letter of the chain named. Names may count otherwise.

B1: MK0144: SEQ ID NO: 110; H244W+S193A+N228D+L305F+S306P+I109V+C38R+F55I+Y108F+A316W+Y339M+T342S+V348I+K353R (protein)
chain: MADKNILYGPEPFYPLEDGTAGEQMFDALSRYAAIPGRIALTNAHTKENVLYEEILKLSCRLAESFKKYGLKQNDTIAVCSENSLQFFLPVIASLYLGIIVAPVNDKFVERELIHSLGIVKPRIVFCSKNTFQKVLNVKSKLKSIETIIILDLNEDLGGYQCLNNFISQNSDSNLDVKKFKPYSFNRDDQVAAIMFSSGTTGLPKGVMLTHKNIVARFSIAKDPTFGDAINPTSAILTVIPFHWGFGMMTTLGYFTCGFRVVLMHTFEEKLFLQSLQDYKVESTLLVPTLMAFLAKSALVEKYDFPHLKEIASGGWPLSKEIGEMVKKRFKLNFVRQGMGLSETTSAILITPRGDAKPGSTGKIVPLHAVKVVDPTTGKILGPNEPGELYFKGPMIMKGYYNNEEATKAIIDNDGWLRSGDIAYYDNDGHFYIVDRLKSLIKYKGYQVAPAEIEGILLQHPYIVDAGVTGIPDEAAGELPAAGVVVQTGKYLNEQIVQDYVASQVSTAKWLRGGVKFLDEIPKGSTGKIDRKVLRQMLEKHTNGHHHHHHHH
B2: MK0142: SEQ ID NO: 109; H244W+S193A+N228D+L305F+S306P+I109V+C38R+F55I+Y108F+A316W+Y339M+T342S+V348I+T289R (protein)
chain: B1 chain with T289R, R353K
B3: MK0139: SEQ ID NO: 107; H244W+S193A+N228D+L305F+S306P+I109V+C38R+F55I+Y108F+A316W+Y339M+T342S+V348I+I240V (protein)
chain: B1 chain with I240V, R353K
B4: C2240E2: SEQ ID NO: 40; H244W+T344A+I396K+S193A+N228D+L305F+S306P+I109V+I230F+V335G+I410M (protein)
chain: MADKNILYGPEPFYPLEDGTAGEQMFDALSRYAAIPGCIALTNAHTKENVLYEEFLKLSCRLAESFKKYGLKQNDTIAVCSENSLQFFLPVIASLYLGIIVAPVNDKYVERELIHSLGIVKPRIVFCSKNTFQKVLNVKSKLKSIETIIILDLNEDLGGYQCLNNFISQNSDSNLDVKKFKPYSFNRDDQVAAIMFSSGTTGLPKGVMLTHKNIVARFSIAKDPTFGDAFNPTSAILTVIPFHWGFGMMTTLGYFTCGFRVVLMHTFEEKLFLQSLQDYKVESTLLVPTLMAFLAKSALVEKYDFPHLKEIASGGAPLSKEIGEMVKKRFKLNFGRQGYGLTEATSAVLITPKGDAKPGSTGKIVPLHAVKVVDPTTGKILGPNEPGELYFKGPMKMKGYYNNEEATKAMIDNDGWLRSGDIAYYDNDGHFYIVDRLKSLIKYKGYQVAPAEIEGILLQHPYIVDAGVTGIPDEAAGELPAAGVVVQTGKYLNEQIVQDYVASQVSTAKWLRGGVKFLDEIPKGSTGKIDRKVLRQMLEKHTNGHHHHHHHH
B5: C2261D9: SEQ ID NO: 41; H244W+T344A+I396K+S193A+N228D+L305F+S306P+I109V+C38R+Y108F+T376I (protein)
chain: B4 chain with C38R, Y108F, F230I, G335V, T376I, M410I

Experiments:
[1] = Kinetic analysis of thermostable variants with 400 fM-4 mM CS0280 (Table 12); type: biochemical; settings: 4 mM ATP
Method: Table 12 includes representative results of kinetic analysis of the thermostable variants with 400 fM-4 mM CS0280. This panel of enzyme variants have a combination of improved thermostability and brightness with CS0280 relative to their progenitor enzyme variants MK134 and MK137.

[2] = Differential scanning fluorimetry (DSF) analysis; type: physicochemical; parameters: key to DSF Tm: melting temperature in °C (heated 30-95 °C at 1 °C/min); settings: for DSF Tm (° C.): Table 12; for DSF Tm: Table 7A
How it was run: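 Thermal melt with 5× final Sypro Orange: ramp 1° C/min from 30 to 95° C, reading each 60 s, derivative of fluorescence plotted by temperature. Luciferase variants were in 20 mM HEPES pH 7.5, 200 mM NaCl, 1 mM EDTA; other enzymes in 50 mM HEPES pH 7.5, 100 mM NaCl, 2 mM EDTA.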

[3] = Brightness of additional luciferase enzyme variants with CS0280; type: biochemical; settings: Table 7A, 1 mM CS0280; for Fold-improvement over ATG3707, CS0280 BG: Bright-Glo buffer; for Fold-improvement over ATG3707, CS0280 DR: Detection Reagent buffer
How it was run: (§1)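 Each variant at 0.005 mg/ml combined with 1 mM ATP plus 1 mM substrate in Bright-Glo or Detection Reagent buffer; luminescence recorded as relative brightness.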

[4] = Kinetic analysis of ATG-3707 variants with CS0333; type: biochemical
Method: Additionally, Table 5 (below) includes kinetic analysis of the ATG-3707 variants identified above. Reagent compositions included CS0333 serially diluted 10-fold from 1 mM to 10 fM in reaction buffer with 2 mM ATP. […] Reactions were incubated at 25° C. for 3 min, and luminescence was read and then normalized to ATG-3707 activity tested in parallel. […] Since C2157D2 was selected for improved brightness in CellTiterGlo® buffer over ATG-3707, it still had beneficial properties.

[5] = Luminescence of ATG-3707 variants (second round epPCR) with CS0333; type: biochemical; settings: for Luminescence (RLU) BrightGlo / Normalized Luminescence BrightGlo: BrightGlo buffer; for Luminescence (RLU) BrightGlo / Luminescence (RLU) CellTiterGlo / Luminescence (RLU) Detection Reagent: 25° C., 3 min; for Normalized Luminescence BrightGlo / Normalized Luminescence CellTiterGlo / Normalized Luminescence Detection Reagent: normalized to ATG-3707; for Luminescence (RLU) CellTiterGlo / Normalized Luminescence CellTiterGlo: CellTiterGlo buffer; for Luminescence (RLU) Detection Reagent / Normalized Luminescence Detection Reagent: Detection Reagent buffer
Method: Reagent compositions included CS0333 diluted from 20 mM to 2 mM in reaction buffer with 2 mM ATP. […] Reactions were incubated at 25° C. for 3 min, and luminescence was read and then normalized to ATG-3707 activity tested in parallel.

[6] = Brightness of additional luciferase enzyme variants with CS0333; type: biochemical; settings: Table 7A, 1 mM CS0333; for Fold-improvement over ATG3707, CS0333 BG: Bright-Glo buffer; for Fold-improvement over ATG3707, CS0333 DR: Detection Reagent buffer
How it was run: as §1

| Molecule | Km ([1]; BrightGlo Buffer) [µM] | Vmax (RLU) ([1]; BrightGlo Buffer) | Km ([1]; Detection Reagent Buffer) [µM] | Vmax (RLU) ([1]; Detection Reagent Buffer) | DSF Tm (° C.) [2] [°C] | Fold-improvement over ATG3707, CS0280 BG [3] | Fold-improvement over ATG3707, CS0280 DR [3] | Km ([4]; BrightGlo) [µM] | Vmax (RLU) ([4]; BrightGlo) | Km ([4]; Detection Reagent) [µM] | Vmax (RLU) ([4]; Detection Reagent) | DSF Tm [2] | Luminescence (RLU) BrightGlo [5] [RLU] | Normalized Luminescence BrightGlo [5] | Luminescence (RLU) CellTiterGlo [5] [RLU] | Normalized Luminescence CellTiterGlo [5] | Luminescence (RLU) Detection Reagent [5] [RLU] | Normalized Luminescence Detection Reagent [5] | Fold-improvement over ATG3707, CS0333 BG [6] | Fold-improvement over ATG3707, CS0333 DR [6] |
| --- | --- | --- | --- | --- | --- | --- | --- | --- | --- | --- | --- | --- | --- | --- | --- | --- | --- | --- | --- | --- |
| B1 | 10.5 | 1,586,262 RLU | 35.4 | 43,744 RLU | 73 | – | – | – | – | – | – | – | – | – | – | – | – | – | – | – |
| B2 | 4.98 | 1,409,786 RLU | 32.3 | 70,257 RLU | 71 | – | – | – | – | – | – | – | – | – | – | – | – | – | – | – |
| B3 | 15.7 | 764,421 RLU | 128 | 35,633 RLU | 72 | – | – | – | – | – | – | – | – | – | – | – | – | – | – | – |
| B4 | – | – | – | – | – | 1.24 | 1.39 | 3.97 | 5,559,638 RLU | 88.7 | 5,831,602 RLU | 49 | 3202900 | 0.82 | 976519 | 1.51 | 6978270 | 1.35 | 1.26 | 1.21 |
| B5 | – | – | – | – | – | 1.39 | 1.89 | 7.46 | 6,903,348 RLU | 117 | 6,756,516 RLU | 61 | 4380280 | 1.13 | 628712 | 0.98 | 6890380 | 1.34 | 1.10 | 1.43 |
